Measured values: article PMC8360603

Molecular target: DDB1/DCAF1 C-terminal domain complex (UniProt Q16531)
UniProt Q16531, sequence (Q16531 whole entry, chain 1 of 2, the tested form may be a part): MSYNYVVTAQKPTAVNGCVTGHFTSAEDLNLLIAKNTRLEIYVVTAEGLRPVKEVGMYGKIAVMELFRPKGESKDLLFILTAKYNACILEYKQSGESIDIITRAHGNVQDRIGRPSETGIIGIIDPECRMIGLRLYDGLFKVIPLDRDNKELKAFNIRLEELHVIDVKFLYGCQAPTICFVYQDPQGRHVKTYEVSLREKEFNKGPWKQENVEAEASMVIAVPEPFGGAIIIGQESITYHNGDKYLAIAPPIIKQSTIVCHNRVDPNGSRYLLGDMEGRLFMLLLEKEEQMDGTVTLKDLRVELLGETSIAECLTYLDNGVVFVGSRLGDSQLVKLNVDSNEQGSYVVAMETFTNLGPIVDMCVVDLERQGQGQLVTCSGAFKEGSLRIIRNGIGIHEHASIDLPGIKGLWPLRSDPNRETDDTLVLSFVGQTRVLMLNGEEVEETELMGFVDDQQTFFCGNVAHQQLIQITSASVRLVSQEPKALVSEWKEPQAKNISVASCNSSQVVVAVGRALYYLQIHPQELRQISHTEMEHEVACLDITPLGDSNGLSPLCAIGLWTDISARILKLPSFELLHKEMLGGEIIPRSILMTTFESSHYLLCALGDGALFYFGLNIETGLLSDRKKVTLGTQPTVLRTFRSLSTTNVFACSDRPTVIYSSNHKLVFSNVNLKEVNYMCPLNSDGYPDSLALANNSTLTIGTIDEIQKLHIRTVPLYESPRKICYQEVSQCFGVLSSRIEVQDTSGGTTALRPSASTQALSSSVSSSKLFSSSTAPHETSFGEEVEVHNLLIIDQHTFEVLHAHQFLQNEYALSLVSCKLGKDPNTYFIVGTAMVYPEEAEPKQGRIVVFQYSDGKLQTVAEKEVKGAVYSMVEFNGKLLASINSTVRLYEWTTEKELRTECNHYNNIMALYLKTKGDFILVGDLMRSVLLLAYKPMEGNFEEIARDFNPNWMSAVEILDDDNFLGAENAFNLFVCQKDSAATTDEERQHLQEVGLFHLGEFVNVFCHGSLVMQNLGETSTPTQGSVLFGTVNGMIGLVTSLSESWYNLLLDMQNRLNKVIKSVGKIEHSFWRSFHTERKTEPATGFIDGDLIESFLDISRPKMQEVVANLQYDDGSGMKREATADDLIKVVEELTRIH
UniProt Q16531, sequence (Q9Y4B6 1046-1396, chain 2 of 2, further chain): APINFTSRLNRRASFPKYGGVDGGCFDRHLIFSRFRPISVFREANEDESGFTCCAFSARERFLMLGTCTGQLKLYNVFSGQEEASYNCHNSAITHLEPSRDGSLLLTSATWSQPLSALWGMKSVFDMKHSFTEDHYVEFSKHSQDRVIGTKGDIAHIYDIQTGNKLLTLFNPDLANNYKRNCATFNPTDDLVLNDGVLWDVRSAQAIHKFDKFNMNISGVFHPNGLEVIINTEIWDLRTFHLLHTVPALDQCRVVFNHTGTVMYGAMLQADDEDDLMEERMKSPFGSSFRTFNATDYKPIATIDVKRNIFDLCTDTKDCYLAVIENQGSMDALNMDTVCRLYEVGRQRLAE

## T4L-SAMHD1-CtD (domain or fragment)
  in vitro ubiquitylation of T4L-SAMHD1-CtD by CRL4^DCAF1-CtD (UBA1, UBCH5C, ubiquitin, ATP) with HisSUMO-T4L-Vprmus (1-92), 0-15 min, SDS-PAGE; loss of the unmodified band: > 90%
